Target: the molecule itself
Experiment: non-reducing SDS-PAGE with immunoblot

B1: His-tagged human recombinant peroxiredoxin 1 with Cys83 changed to Ser83 (natural protein)
chain: MSSGNAKIGHPAPNFKATAVMPDGQFKDISLSDYKGKYVVFFFYPLDFTFVCPTEIIAFSDRAEEFKKLNCQVIGASVDSHFSHLAWVNTPKKQGGLGPMNIPLVSDPKRTIAQDYGVLKADEGISFRGLFIIDDKGILRQITVNDLPVGRSVDETLRLVQAFQFTDKHGEVCPAGWKPGSDTIKPDVQKSKEYFSKQK
- stoichiometry N: 2
